Positions count from the first letter of the chain named. Names and notes keep the numbering of the source. Values belong to the binder of their own block, whether it stands above or below them.
Legend:
[1] = target: T1, mouse PD-1 on doxycycline-induced 32D[pRF770+pRF791] cells (mouse, UniProt Q02242 25-288); test: cell-based or functional assay
T1 sequence (looked up): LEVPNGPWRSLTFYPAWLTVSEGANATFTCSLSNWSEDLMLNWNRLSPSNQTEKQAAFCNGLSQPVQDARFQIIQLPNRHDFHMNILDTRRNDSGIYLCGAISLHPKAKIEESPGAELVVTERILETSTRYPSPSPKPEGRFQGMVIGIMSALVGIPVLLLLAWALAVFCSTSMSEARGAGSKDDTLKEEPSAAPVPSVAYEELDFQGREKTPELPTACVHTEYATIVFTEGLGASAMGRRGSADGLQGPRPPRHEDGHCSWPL

[2] = target: T2, IL-15 signaling receptor on 32D[pRF770+pRF791] cells (human CD122 plus mouse CD132) (human; mouse, UniProt P14784 27-551; P34902 23-369); test: cell-based or functional assay
T2 sequence (looked up) 1: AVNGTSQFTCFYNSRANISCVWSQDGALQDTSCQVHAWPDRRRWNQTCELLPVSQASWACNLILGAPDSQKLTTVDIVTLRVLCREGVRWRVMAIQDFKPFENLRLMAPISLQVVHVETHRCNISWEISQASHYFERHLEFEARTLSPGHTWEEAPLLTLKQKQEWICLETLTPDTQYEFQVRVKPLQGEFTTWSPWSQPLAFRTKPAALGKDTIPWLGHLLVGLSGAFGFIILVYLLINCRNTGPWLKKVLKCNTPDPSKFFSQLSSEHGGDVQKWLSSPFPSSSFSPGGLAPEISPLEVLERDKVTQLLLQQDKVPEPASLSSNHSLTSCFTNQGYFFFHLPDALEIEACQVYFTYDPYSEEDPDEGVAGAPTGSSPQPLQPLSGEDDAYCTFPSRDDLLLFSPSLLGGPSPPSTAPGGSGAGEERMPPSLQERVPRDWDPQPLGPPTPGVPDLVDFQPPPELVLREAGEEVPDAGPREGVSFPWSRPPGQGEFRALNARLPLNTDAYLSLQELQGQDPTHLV
T2 sequence (looked up) 2: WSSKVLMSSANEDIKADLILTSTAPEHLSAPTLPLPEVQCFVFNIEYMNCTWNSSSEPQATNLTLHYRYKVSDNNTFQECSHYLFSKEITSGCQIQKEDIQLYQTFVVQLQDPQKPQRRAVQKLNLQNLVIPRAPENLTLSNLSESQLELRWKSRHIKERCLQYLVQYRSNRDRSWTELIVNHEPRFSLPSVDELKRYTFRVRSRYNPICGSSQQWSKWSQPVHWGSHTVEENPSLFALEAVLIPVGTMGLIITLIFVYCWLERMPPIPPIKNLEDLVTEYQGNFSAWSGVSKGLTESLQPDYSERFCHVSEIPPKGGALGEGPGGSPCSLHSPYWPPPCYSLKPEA

human IL-15Rα = target: T3, human IL-15Rα (human, UniProt Q13261 31-205, limits assumed); test: SPR 37C, fusion captured by anti-human Fc
T3 construct: also called hIL-15Rα; IL-15 receptor alpha
T3 sequence (Q13261 31-205 limits assumed): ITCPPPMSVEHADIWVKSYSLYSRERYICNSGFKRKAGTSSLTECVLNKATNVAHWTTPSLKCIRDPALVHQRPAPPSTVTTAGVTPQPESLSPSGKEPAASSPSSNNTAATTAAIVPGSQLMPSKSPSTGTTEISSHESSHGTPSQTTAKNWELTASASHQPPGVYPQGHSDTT
How it was run: (§1)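 Anti-PD-1–hIL-15 fusions captured at 10 μg/mL on an anti-human Fc surface, receptor injected at 37 °C in HEPES-buffered saline with 0.05% Tween-20 and 1 mg/mL BSA, pH 7.4; 5 min dissociation.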

human IL-2Rβ [3] = target: T4, human IL-2Rβ (human, UniProt P14784 27-240, limits assumed); test: SPR, steady state, fusion captured
T4 construct: also called hIL-2Rβ; IL-2 receptor beta
T4 sequence (looked up): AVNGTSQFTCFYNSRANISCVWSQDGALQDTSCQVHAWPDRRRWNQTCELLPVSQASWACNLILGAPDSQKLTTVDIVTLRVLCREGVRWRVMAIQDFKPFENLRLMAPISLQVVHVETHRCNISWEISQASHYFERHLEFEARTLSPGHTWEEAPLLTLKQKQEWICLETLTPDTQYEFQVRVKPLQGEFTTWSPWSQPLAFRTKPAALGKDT
Experimental: Anti-human Fc sensor chips were prepared at 25° C. with a running buffer of 10 mM HEPES, 150 mM NaCl, 0.05% (v/v) Tween-20, pH 7.4. All surfaces of a Biacore CM4 sensor chip were activated with a 1:1 (v/v) mixture of 400 mM EDC and 100 mM NHS for 7 minutes, at a flow rate of 10 μL/min. An anti-human Fc reagent (Goat anti-human IgG Fc-γ specific, SouthernBiotech, Birmingham, Ala., Catalog #2014-01) was diluted to 50 μg/mL in 10 mM sodium acetate (pH 4.5) and injected on all flow cells for 7 minutes at 20 μL/min. All flow cells were blocked with 100 mM ethylenediamine in 200 mM Borate buffer pH 8.5 for 7 minutes at 10 μL/min.
All protein interaction experiments were performed at 37° C. using a running buffer of 10 mM HEPES, 150 mM NaCl, 0.05% (v/v) Tween-20, pH 7.4, 1 mg/mL BSA. Anti-PD-1-hIL-15 fusion proteins were captured at 10 μg/mL at a flow rate of 10 μL/min for 2 minutes. Different fusion proteins were captured in flow cells 2, 3 and 4. No protein was captured onto flow cell 1 which was used as a reference surface. […] After each analyte injection, dissociation was monitored for 5 minutes followed by regeneration of all flow cells with three 60-second injections of 75 mM phosphoric acid. […] For kinetic analysis, the double-referenced sensorgrams were fit globally to a simple 1:1 Langmuir with mass transport binding model using Biacore T200 Evaluation Software version 2.0. For steady-state affinity analysis, the double-referenced equilibrium binding responses were fit with a 1:1 Langmuir steady-state model using Biacore T200 Evaluation Software version 2.0.

human IL-2Rβ [4] = target: T4, human IL-2Rβ; test: SPR, fusion captured
How it was run: as §1

[5] = target: human PD-1 on cells of human PBMCs (human, UniProt Q15116 25-288); test: cell-based or functional assay
human PD-1 on cells of human PBMCs, sequence (Q15116 25-288): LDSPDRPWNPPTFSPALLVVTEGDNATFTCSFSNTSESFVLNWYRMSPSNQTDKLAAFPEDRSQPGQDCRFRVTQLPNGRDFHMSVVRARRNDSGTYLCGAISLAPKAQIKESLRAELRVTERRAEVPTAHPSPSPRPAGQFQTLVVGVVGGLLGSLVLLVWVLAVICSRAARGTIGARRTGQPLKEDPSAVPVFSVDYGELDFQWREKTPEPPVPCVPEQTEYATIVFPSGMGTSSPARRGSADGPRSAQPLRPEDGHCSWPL

[6] = target: T5, human CD122/CD132 on cells of human PBMCs (human, UniProt P14784 27-551; P31785 23-369); test: cell-based or functional assay
T5 sequence (looked up) 1: T2 sequence (looked up) 1
T5 sequence (looked up) 2: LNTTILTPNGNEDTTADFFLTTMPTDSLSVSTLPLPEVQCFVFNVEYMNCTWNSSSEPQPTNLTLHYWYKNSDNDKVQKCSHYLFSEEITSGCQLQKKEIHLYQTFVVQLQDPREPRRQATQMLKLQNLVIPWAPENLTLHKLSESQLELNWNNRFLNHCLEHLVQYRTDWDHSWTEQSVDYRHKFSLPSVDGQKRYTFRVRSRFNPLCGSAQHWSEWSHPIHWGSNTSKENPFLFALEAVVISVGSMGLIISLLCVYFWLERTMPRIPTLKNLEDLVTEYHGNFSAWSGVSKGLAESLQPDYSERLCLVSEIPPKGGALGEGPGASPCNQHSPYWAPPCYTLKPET

Fold change = EC50 (PD-1(low))/EC50 (PD-1+) [1]: 1450 fold | pSTAT5 EC50 on PD-1+ 32D reporter cells [1]: 53.1 pM | pSTAT5 EC50 on PD-1(low) 32D reporter cells [2]: 76.9 nM | binding result (human IL-15Rα): no binding (tested: 3000 nM) | Kd (human IL-2Rβ [3]): 0.433 µM
B1: xmPD-1-IL15 m1 (other)
heavy 1: EVQLVESGGGLVKPGGSLELSCAASGFTFSSYWMSWVRQAPEKGLEWVAAISPSGGSTYYADSVKGRFTISRDNAKNTLFLQMTSLRSEDTAMYYCAKESWGAYYDLWGQGTTVTVSSASTKGPSVFPLAPSSKSTSGGTAALGCLVKDYFPEPVTVSWNSGALTSGVHTFPAVLQSSGLYSLSSVVTVPSSSLGTQTYICNVNHKPSNTKVDKKVEPKSCDKTHTCPPCPAPEAAGAPSVFLFPPKPKDTLMISRTPEVTCVVVDVSHEDPEVKFNWYVDGVEVHNAKTKPREEQYNSTYRVVSVLTVLHQDWLNGKEYKCKVSNKALPAPIEKTISKAKGQPREPQVYTLPPCREEMTKNQVSLSCAVKGFYPSDIAVEWESNGQPENNYKTTPPVLDSDGSFFLVSKLTVDKSRWQQGNVFSCSVMHEALHNHYTQKSLSLSPGSGGGGSGGGGSGGGGAWVNVISDLKKIEDLIQSMHIDATLYTESNVHPSCKVTAMKCFLLGLQRISLESGDASIHDTVENLIILANNSLSSNGNVTESGCKECEELEEKNIKEFLQSFVHIVQMFINTS
heavy 2: EVQLVESGGGLVKPGGSLELSCAASGFTFSSYWMSWVRQAPEKGLEWVAAISPSGGSTYYADSVKGRFTISRDNAKNTLFLQMTSLRSEDTAMYYCAKESWGAYYDLWGQGTTVTVSSASTKGPSVFPLAPSSKSTSGGTAALGCLVKDYFPEPVTVSWNSGALTSGVHTFPAVLQSSGLYSLSSVVTVPSSSLGTQTYICNVNHKPSNTKVDKKVEPKSCDKTHTCPPCPAPEAAGAPSVFLFPPKPKDTLMISRTPEVTCVVVDVSHEDPEVKFNWYVDGVEVHNAKTKPREEQYNSTYRVVSVLTVLHQDWLNGKEYKCKVSNKALPAPIEKTISKAKGQPREPQVCTLPPSREEMTKNQVSLWCLVKGFYPSDIAVEWESNGQPENNYKTTPPVLDSDGSFFLYSKLTVDKSRWQQGNVFSCSVMHEALHNHYTQKSLSLSPGK
light: DIVMTQSPSSLSVSAGDKVTMSCRASQGISSWLAWYQQKPWQPPKLLIYKASTLESGVPDRFTGSGSGTDFTLTISSVQAEDLAVYYCQQSYSTPWTFGGGTKLEIKGTVAAPSVFIFPPSDEQLKSGTASVVCLLNNFYPREAKVQWKVDNALQSGNSQESVTEQDSKDSTYSLSSTLTLSKADYEKHKVYACEVTHQGLSSPVTKSFNRGEC
notes: also called xmPD-1-hIL15 V49R/E46G/N1A/D30N

Fold change = EC50 (PD-1(low))/EC50 (PD-1+) [1]: 2370 fold | pSTAT5 EC50 on PD-1+ 32D reporter cells [1]: 0.31 nM | pSTAT5 EC50 on PD-1(low) 32D reporter cells [2]: 734 nM | binding result (human IL-15Rα): no binding (tested: 3000 nM) | Kd (human IL-2Rβ [4]): > 1.5 µM
B2: xmPD-1-IL15 m2 (other)
heavy 1: B1 heavy 1 with A463G, E526Q
heavy 2: B1 heavy 2
light: B1 light
notes: also called xmPD-1-hIL15 V49R/E46G/N1G/E64Q/D30N

Fold change = EC50 (Isotype control--IL15)/EC50 (xhPD1--IL15), CD8+cm T cells [5]: 47 fold | Fold change = EC50 (Isotype control--IL15)/EC50 (xhPD1--IL15), NK cells [5]: 1.99 fold | pSTAT5 EC50 on human CD8+cm T cells (hPBMC) [5]: 78 pM | pSTAT5 EC50 on human NK cells (hPBMC) [6]: 0.475 nM
B3: xhPD-1-IL15 m1 (other)
heavy 1: not shown
heavy 2: not shown
light: DIQMTQSPSSLSASVGDRVTITCKSSQSLWDSGNQKNFLTWYQQKPGKAPKLLIYWTSYRESGVPSRFSGSGSGTDFTLTISSLQPEDFATYYCQNDYFYPLTFGGGTKVEIKRTVAAPSVFIFPPSDEQLKSGTASVVCLLNNFYPREAKVQWKVDNALQSGNSQESVTEQDSKDSTYSLSSTLTLSKADYEKHKVYACEVTHQGLSSPVTKSFNRGEC

Fold change = EC50 (Isotype control--IL15)/EC50 (xhPD1--IL15), CD8+cm T cells [5]: 76.5 fold | Fold change = EC50 (Isotype control--IL15)/EC50 (xhPD1--IL15), NK cells [5]: 1.36 fold | pSTAT5 EC50 on human CD8+cm T cells (hPBMC) [5]: 0.492 nM | pSTAT5 EC50 on human NK cells (hPBMC) [6]: 8.27 nM
B4: xhPD-1-IL15 m2 (other)
heavy 1: not shown
heavy 2: not shown
light: B3 light

From US20210324028A1 (Pfizer, published 2021)
